Laboratory results: paper PMC3571920

Biological target: HIV-1 integrase tagged at the C-terminus with the HA epitope (IN-HA) (HIV-1 (Lai molecular clone))
Assay: cross-linking; gel filtration fractions 30-32 (IN complex III) of extracts of infected LEDGF/p75 knock-down TL34 cells, 2 h p.i.; 0.25 to 2 mM EGS, 30 min at room temperature, 20 mM HEPES-KOH pH 7.2, 0.3 M KCl; SDS-PAGE and anti-HA-HRP blot

Substance: HIV-1 integrase tagged at the C-terminus with the HA epitope (IN-HA) (enzyme)
- stoichiometry N: 4
